Square brackets hold non-standard residues; d marks the D form. βAla = NCCC(=O)O
Columns and labels:
[1] = target: human nucleophosmin 1 (NPM1) (human), P06748; assay: SPR on human NPM1, mean of at least three peptide concentrations below saturation
[2] = target: human nucleophosmin 1 (NPM1) (human), P06748; assay: SPR on human NPM1, KD calculated as koff/kon

Chain of human nucleophosmin 1 (NPM1) (human), P06748 (P06748 whole entry): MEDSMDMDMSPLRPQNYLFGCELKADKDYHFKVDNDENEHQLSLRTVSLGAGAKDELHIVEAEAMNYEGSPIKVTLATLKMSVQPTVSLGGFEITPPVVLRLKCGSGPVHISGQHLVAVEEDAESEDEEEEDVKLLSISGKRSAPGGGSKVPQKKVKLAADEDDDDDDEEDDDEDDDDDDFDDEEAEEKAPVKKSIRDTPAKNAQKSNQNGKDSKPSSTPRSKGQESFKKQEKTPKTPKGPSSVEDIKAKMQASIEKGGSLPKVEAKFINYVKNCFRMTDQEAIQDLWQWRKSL

Binder	koff [1]	kon [1]	Kd [2]
Ac-KKRRRKKRRRKKRRRK[βAla]TVTIFVAGVLTASLTIWKKMG-OH (SMILES CC[C@H](C)[C@H](NC(=O)[C@@H](NC(=O)[C@H](CC(C)C)NC(=O)[C@H](CO)NC(=O)[C@H](C)NC(=O)[C@@H](NC(=O)[C@H](CC(C)C)NC(=O)[C@@H](NC(=O)CNC(=O)[C@H](C)NC(=O)[C@@H](NC(=O)[C@H](Cc1ccccc1)NC(=O)[C@@H](NC(=O)[C@@H](NC(=O)[C@@H](NC(=O)[C@@H](NC(=O)CCNC(=O)[C@H](CCCCN)NC(=O)[C@H](CCCNC(=N)N)NC(=O)[C@H](CCCNC(=N)N)NC(=O)[C@H](CCCNC(=N)N)NC(=O)[C@H](CCCCN)NC(=O)[C@H](CCCCN)NC(=O)[C@H](CCCNC(=N)N)NC(=O)[C@H](CCCNC(=N)N)NC(=O)[C@H](CCCNC(=N)N)NC(=O)[C@H](CCCCN)NC(=O)[C@H](CCCCN)NC(=O)[C@H](CCCNC(=N)N)NC(=O)[C@H](CCCNC(=N)N)NC(=O)[C@H](CCCNC(=N)N)NC(=O)[C@H](CCCCN)NC(=O)[C@H](CCCCN)NC(C)=O)[C@@H](C)O)C(C)C)[C@@H](C)O)[C@@H](C)CC)C(C)C)C(C)C)[C@@H](C)O)[C@@H](C)O)C(=O)N[C@@H](Cc1c[nH]c2ccccc12)C(=O)N[C@@H](CCCCN)C(=O)N[C@@H](CCCCN)C(=O)N[C@@H](CCSC)C(=O)NCC(=O)O) [NPMB1-I-010]	0.0616 s⁻¹	73200 M⁻¹ s⁻¹	842 nM
Ac-RREEERREEERREEEK[βAla]TVTIFVAGVLTASLTIWKKMG-OH (SMILES CC[C@H](C)[C@H](NC(=O)[C@@H](NC(=O)[C@H](CC(C)C)NC(=O)[C@H](CO)NC(=O)[C@H](C)NC(=O)[C@@H](NC(=O)[C@H](CC(C)C)NC(=O)[C@@H](NC(=O)CNC(=O)[C@H](C)NC(=O)[C@@H](NC(=O)[C@H](Cc1ccccc1)NC(=O)[C@@H](NC(=O)[C@@H](NC(=O)[C@@H](NC(=O)[C@@H](NC(=O)CCNC(=O)[C@H](CCCCN)NC(=O)[C@H](CCC(=O)O)NC(=O)[C@H](CCC(=O)O)NC(=O)[C@H](CCC(=O)O)NC(=O)[C@H](CCCNC(=N)N)NC(=O)[C@H](CCCNC(=N)N)NC(=O)[C@H](CCC(=O)O)NC(=O)[C@H](CCC(=O)O)NC(=O)[C@H](CCC(=O)O)NC(=O)[C@H](CCCNC(=N)N)NC(=O)[C@H](CCCNC(=N)N)NC(=O)[C@H](CCC(=O)O)NC(=O)[C@H](CCC(=O)O)NC(=O)[C@H](CCC(=O)O)NC(=O)[C@H](CCCNC(=N)N)NC(=O)[C@H](CCCNC(=N)N)NC(C)=O)[C@@H](C)O)C(C)C)[C@@H](C)O)[C@@H](C)CC)C(C)C)C(C)C)[C@@H](C)O)[C@@H](C)O)C(=O)N[C@@H](Cc1c[nH]c2ccccc12)C(=O)N[C@@H](CCCCN)C(=O)N[C@@H](CCCCN)C(=O)N[C@@H](CCSC)C(=O)NCC(=O)O) [NPMB1-I-011]	0.0299 s⁻¹	88500 M⁻¹ s⁻¹	337 nM
